Molecular target: CD3 (human)

## anti-CD3 mAb SPV-T3b (antibody)
  lymphokine production (IL-2, ng/ml) by T cell clone 827 with CD3 + TPA: 10.6 ng/mL
